The source of these data is patent US12012599B2, “Compositions and methods for modulating left-right differentiation factor (LEFTY) and bone morphogenic factor (BMP)” (CZ Biohub SF LLC, priority 2018, dated 2024).

One experiment deals with pSMAD2. As to the kind of experiment: Western-blot of pSMAD2 in Comma-D mammary epithelial cells. It counts as cell-based, mouse. To be noted: Comma-D cells blocked with LEFTY1 200 ng/ml 1 hour, stimulated with BMP7 and Nodal 50 ng/ml 30 minutes. As to the method: (§1) FIGS. 4J-4L. LEFTY1 inhibits pSMAD2 and pSMAD5 in Comma-D mouse mammary epithelial cells. […] Comma-D cells were serum starved 16 hours and blocked with LEFTY1 (200 ng/ml) for 1 hour and stimulated with BMP7 (50 ng/ml) and Nodal (50 ng/ml) for 30 minutes in serum free media. Cells were harvested in 1×RIPA Buffer with 1× protease and phosphatase inhibitors on ice. Lysates were diluted in 4× sample buffer and boiled at 95° C. for 5 minutes and then run on a 10% SDS-page gradient gels at 100V for 1 hour. […] The membranes were incubated with either pSMAD2, pSMAD5, total SMAD2/3 or SMAD1/5/8 antibodies overnight. Incubation with secondary antibodies containing fluorophores at 1:20,000 dilution (IRDye 800CW conjugated goat anti-rabbit #926-32211, IRDye 680 conjugated goat anti-mouse antibodies #926-32220, LI-COR Biosciences, Lincoln, NE) enabled visualization on the Odyssey Infrared Imaging System from LI-COR Biosciences. […] Data are represented as median±S.D. Statistical analysis, one-way ANOVA with post-hoc Tukey multiple comparison, ****p<0.0001, ***p<0.001; unless stated analysis is non-significant with p>0.05.

Another experiment deals with pSMAD5. Description: Western-blot of pSMAD5 in Comma-D mammary epithelial cells. The conditions noted are these: Comma-D cells blocked with LEFTY1 200 ng/ml 1 hour, stimulated with BMP7 and Nodal 50 ng/ml 30 minutes. The format is cell-based, mouse. As to the method: as §1
A further experiment concerns BMPR2. As to the kind of experiment: LEFTY1 and BMPR2 immunoprecipitation assays. The format is binding. The conditions noted are these: both directions. An excerpt: FIGS. 5A-5H. LEFTY1 inhibits pSMAD2 and pSMAD5 in the basal mammary epithelial cells. […] KRT8 was used to stain the luminal cells and SMA for basal cells (Magnification 400×). […] Gapdh was used as a housekeeping gene. […] Ten different fields were counted per condition (n=3). Data are represented as median±S.D. Statistical analysis, (a and b) Student's T-test, * p<0.05; (h) One-way ANOVA with Dunnet's adjustment, ****p<0.0001.
FIGS. 7A-7E. LEFTY1 interaction with BMPR2 inhibits the phosphorylation of SMAD5. […] Ten different fields were counted per condition (n=3). […] 48 hours after transfection, cells were washed and incubated with different concentrations of BMP7 (from 0-800 ng/ml) for 16 hours prior to collection of the cells. […] 48 hours after transfection, cells were washed and incubated with different concentrations of LEFTY1 (from 0-200 ng/ml) for 16 hours prior to collection of the cells. […] 48 hours after transfection, cells were washed and incubated with different concentrations of BMP7 and LEFTY1 at the indicated concentrations for 16 hours prior to collection of the cells. Data are represented as median±S.D. Statistical analysis, one-way ANOVA with Dunnet's adjustment, *p<0.05; **p<0.01; ****p<0.0001.
Since BMPR2 is upstream of pSMAD1/5/8, we reasoned that BMPR2 could serve as a common BMP Type II receptor that mediates the BMP7/LEFTY1 axis. […]

A further experiment has as its system ACVR2B. As to the kind of experiment: Proximity ligation assay with other TGF-β receptors. It counts as binding. The procedure:
FIGS. 5I-5J: LEFTY1 preferentially interacts with BMPR2. […] BMP7-BMPR2 interaction was used as a positive control, and mouse and rabbit IgGs were used as technical negative controls. The interaction of LEFTY with Wnt receptor LRP6 was analyzed as a biological negative control. […] Data are represented as median±S.D. Statistical analysis, one-way ANOVA post-hoc Tukey multiple comparison, ****p<0.0001, ***p<0.001; unless stated analysis is non-significant with p>0.05.
Next, we assessed the interaction of LEFTY with different type I and type II TGF-β receptors. BMP7-BMPR2 interaction was used as a positive control, and mouse and rabbit IgGs were used as technical negative controls. We also analyzed the interaction of LEFTY with Wnt receptor LRP6 as a biological negative control.

B1: LEFTY1: left-right determination factor 1, secreted TGF-β superfamily protein; generic LEFTY may mean LEFTY1 or LEFTY2 (protein, UniProt O75610 77-366, looked up)
Left-right determination …: RFSQSFREVAGRFLALEASTHLLVFGMEQRLPPNSELVQAVLRLFQEPVPKAALHRHGRLSPRSARARVTVEWLRVRDDGSNRTSLIDSRLVSVHESGWKAFDVTEAVNFWQQLSRPRQPLLLQVSVQREHLGPLASGAHKLVRFASQGAPAGLGEPQLELHTLDLGDYGAQGDCDPEAPMTEGTRCCRQEMYIDLQGMKWAENWVLEPPGFLAYECVGTCRQPPEALAFKWPFLGPRQCIASETDSLPMIVSIKEGGRTRPQVVSLPNMRVQKCSCASDGALVPRRLQP
Take B1: the pSMAD2 signal entry in the experiment with pSMAD2 was “inhibited”. The pSMAD5 signal entry with pSMAD5 is given as “inhibited”. The “binding of LEFTY1 to BMPR2 (pull-down)” value in the experiment with BMPR2 was “able to detect the binding”. Besides, the “interaction with other TGF-β receptors, ACVR2B” value with ACVR2B is reported as “also interacted”.
